According to patent US20090162366A1:

Molecular target: M2G peptide conjugated with BSA (influenza A virus, A/Puerto Rico/8/34 (H1N1))
Assay: peptide-BSA ELISA (++ EC50<10^-9M; + 10^-9M<EC50<10^-8M)

**Q.** mouse anti-M2 antibody 14C2 was tested. Which EC50 did it give?
**A.** Its EC50 is under 1 nM.
